Tests used:
SEC [1] = target: the molecule itself; assay: SEC
light scattering = target: the molecule itself; assay: light scattering
SEC [2] = target: the molecule itself; assay: SEC; remark: listed apart in the source

Protein	pseudocritical concentration (SEC [1]) [µM]	amount of capsid relative to Cp149red (light scattering) [%]	fold slower elongation rate constant than Cp149red (light scattering) [fold]	Kd (SEC [2]) [µM]
Cp149-C61S (Cp149 with C61 mutated to serine) (domain or fragment, hepatitis B virus, UniProt P03147 1-149, looked up) MDIDPYKEFGATVELLSFLPSDFFPSVRDLLDTAAALYRDALESPEHCSPHHTALRQAILSWGDLMTLATWVGTNLEDPASRDLVVSYVNTNVGLKFRQLLWFHISCLTFGRETVLEYLVSFGVWIRTPPAYRPPNAPILSTLPETTVV	5.9			
Cp149re-red (partially re-reduced Cp149ox) (domain or fragment, hepatitis B virus, UniProt P03147 1-149, looked up, intradimer C61–C61 disulfide in most dimers (only ∼20% of Cp149ox could be reduced)) MDIDPYKEFGATVELLSFLPSDFFPSVRDLLDTAAALYRDALESPEHCSPHHTALRQAILCWGDLMTLATWVGTNLEDPASRDLVVSYVNTNVGLKFRQLLWFHISCLTFGRETVLEYLVSFGVWIRTPPAYRPPNAPILSTLPETTVV	6.5			
Cp149red (reduced HBV core protein assembly domain, amino acids 1–149, homodimer) (domain or fragment, hepatitis B virus, UniProt P03147 1-149, looked up) MDIDPYKEFGATVELLSFLPSDFFPSVRDLLDTAAALYRDALESPEHCSPHHTALRQAILCWGDLMTLATWVGTNLEDPASRDLVVSYVNTNVGLKFRQLLWFHISCLTFGRETVLEYLVSFGVWIRTPPAYRPPNAPILSTLPETTVV	4.7			
Cp149ox (fully oxidized Cp149 dimer with the intradimer C61–C61 disulfide) (domain or fragment, hepatitis B virus, UniProt P03147 1-149, looked up, intradimer C61–C61 disulfide (fully oxidized)) MDIDPYKEFGATVELLSFLPSDFFPSVRDLLDTAAALYRDALESPEHCSPHHTALRQAILCWGDLMTLATWVGTNLEDPASRDLVVSYVNTNVGLKFRQLLWFHISCLTFGRETVLEYLVSFGVWIRTPPAYRPPNAPILSTLPETTVV		~40	1.7	4 ± 0.2
